The target of the experiment is His-FOR20 (UniProt Q96NB1). Nature of the experiment: pull-down; purified His-FOR20 (1 μM) and tubulin dimers (1–8 μM) on ice for 1 h, Ni-NTP beads 30 min, supernatant and pellet on Coomassie gel, band intensities fitted to n identical independent sites; apparent Kd.
UniProt Q96NB1, sequence (Q96NB1 whole entry): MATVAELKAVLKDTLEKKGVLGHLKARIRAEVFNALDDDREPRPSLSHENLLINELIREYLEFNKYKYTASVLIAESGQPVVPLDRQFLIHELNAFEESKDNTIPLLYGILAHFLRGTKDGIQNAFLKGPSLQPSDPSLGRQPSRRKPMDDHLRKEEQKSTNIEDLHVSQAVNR

With “free tubulin dimers (αβ-tubulin heterodimers) (from UniProt P02550 1-451; P02554 1-445) (complex)”, the Kd stood at 3.5 µM and the stoichiometry N (tubulin dimers per FOR20) came to 6.

Values taken from paper PMC5583970.
